Here are results for four molecules from patent publication US6436666.

The target of series [1] is pro A-NS5 target polypeptide of Examples 3 and 4 (protein A anchor region, linker, protease target site of HCV NS5A/5B, linker, FLAG epitope tag region) (hepatitis C virus). As to the kind of experiment: ELISA: pro A-NS5 on human IgG plate, no protease, anti-FLAG then goat anti-mouse conjugate.
Series [2] addresses Substrate: protein A-G-G-G-G-7aa-NS4B/5A cleavage site-8aa-FLAG-G-FLAG-G-FLAG (Example 6) (hepatitis C virus). As to the kind of experiment: time-resolved fluorometry: 20 nM substrate captured on IgG coated Immulon-4 plate, detected with Eu^3+-anti-FLAG MoAb.
Series [3] addresses pro A-NS5, polypeptide substrate of HCV protease (Example 1 construct: Protein A - NS5A/5B protease target site - three FLAG tags) (hepatitis C virus). Nature of the series: ELISA: proA-NS5 2 µg/ml captured on IgG plate, no protease, anti-FLAG then goat anti-mouse-HRP, OPD. A general note: In an ELISA, binding on a coated surface is turned into a signal by an enzyme label.
Series [4] has the same target. Nature of the series: ELISA: pro A-NS5 10 µg/ml captured on IgG plate, no protease, anti-FLAG then goat anti-mouse-HRP, OPD.
Series [5] shares this target. As to the kind of experiment: ELISA: pro A-NS5 on IgG plate, no protease, anti-FLAG then goat anti-mouse-HRP; Exp. 1.
For series [6] the target is unchanged. Nature of the series: ELISA: pro A-NS5 on IgG plate, no protease, anti-FLAG then goat anti-mouse-HRP; Exp. 2.
The target in series [7] is Peptide 4A, a co-factor of the NS3 HCV protease (Example 2).

Several values for one entry are separate records, joined by “and”; a condition that tells them apart may be missing. Equal values may be shown once.

In series [1], “Mouse monoclonal anti-FLAG M2 (IBI, IBI13010/6j0612) (antibody)” came in with an OD w/o DMSO of 2.6 OD. As to “Eu^3+-anti-FLAG MoAb (Sigma via Kodak, cat#IB13026, lot# 710413) (antibody)”, the Eu^3+ counts in series [2] is 1.31e+06 Eu^3+ counts and 1.26e+06 Eu^3+ counts. As for “monoclonal anti-FLAG mouse antibody (available from Kodak)”, the OD in series [3] was determined as 0.77 OD; in series [4] it was 1.21 OD; in series [5], 1.23 OD; in series [6] it was 0.93 OD.

B1: protease 1: Ni-13 (F21) 20 µM, preparation made at Chiron (protein)
chain: APITAYAQQTRGLLGCIITSLTGRDKNQVEGEVQIVSTAAQTFLATCINGVCWTVYHGAGTRTIASPKGPVIQMYTNVDQDLVGWPAPQGSRSLTPCTCGSSDLYLVTRHADVIPVRRRGDSRGSLLSPRPISYLKGSSGGPLLCPAGHAVGIFRAAVCTRGVAKAVDFIPVENLETTMRS
For B1, the “cleavage of the NS4B/5A substrate by the protease with and without the co-factor peptide” value in series [7] is “These data demonstrates the operability of the screening assay using HCV NS4B/5A protease cleavage site with co-factor peptide 4A”.
